Residue numbers refer to the chain shown, from its start.
T1: Ang2 mutant I434 (full-length Ang2) (human, UniProt O15123 19-496, limits assumed)
T1 sequence: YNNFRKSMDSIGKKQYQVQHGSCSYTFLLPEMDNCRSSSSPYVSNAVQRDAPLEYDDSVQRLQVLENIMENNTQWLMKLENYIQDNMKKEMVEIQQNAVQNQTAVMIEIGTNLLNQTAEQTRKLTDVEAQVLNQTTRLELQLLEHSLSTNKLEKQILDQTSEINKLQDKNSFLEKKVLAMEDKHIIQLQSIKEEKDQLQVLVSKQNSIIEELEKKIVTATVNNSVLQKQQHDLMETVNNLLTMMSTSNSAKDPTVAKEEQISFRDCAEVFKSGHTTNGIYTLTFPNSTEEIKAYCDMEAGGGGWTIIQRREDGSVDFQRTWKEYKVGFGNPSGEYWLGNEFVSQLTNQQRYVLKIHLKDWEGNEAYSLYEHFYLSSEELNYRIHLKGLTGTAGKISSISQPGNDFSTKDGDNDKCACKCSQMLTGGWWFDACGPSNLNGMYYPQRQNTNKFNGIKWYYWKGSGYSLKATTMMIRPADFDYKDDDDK

T2: Ang2 RBD mutant S417 (human, UniProt O15123 276-496)
T2 chain: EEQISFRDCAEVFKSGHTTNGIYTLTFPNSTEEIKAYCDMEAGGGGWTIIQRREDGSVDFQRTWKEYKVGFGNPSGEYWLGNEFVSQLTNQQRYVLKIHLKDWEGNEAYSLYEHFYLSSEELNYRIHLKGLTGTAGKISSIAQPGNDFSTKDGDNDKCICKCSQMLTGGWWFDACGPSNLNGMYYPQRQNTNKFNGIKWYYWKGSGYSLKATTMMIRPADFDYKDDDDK

T3: Ang2 RBD mutant K468 (human, UniProt O15123 276-496)
T3 chain: T2 chain with A142S, K193A

T4: Ang2 RBD mutant Y460 (human, UniProt O15123 276-496)
T4 chain: T2 chain with A142S, Y185A

T5: Ang2 RBD mutant D448 (human, UniProt O15123 276-496)
T5 chain: T2 chain with A142S, D173A

T6: Ang2 RBD mutant N467 (human, UniProt O15123 276-496)
T6 chain: T2 chain with A142S, N192A

B1: SAIT-ANG2-AB-m8D3 (antibody, V domains shown)
VH: EVQLQQSGPELVKPGDSVKMSCKASGYTFTDYYMKWVRQSHGKSLQWVGEINPKNGDTFYNQIFKGKATLTVDKSSSTAYMQLTSLTSEDSAVYYCTRENDYDVGFFDYWGQGTSVTVSS
VL: TIVMTQTPKFLLVSAGDRITITCKASQSVSNDVAWYQQKPGQSPKLLIYYASNRYPGVPDRFTGSGYGTDFTFTISTVQAEDLAVYFCQQDYTSPWTFGGGTELEIK
notes: also called hybridoma KCLRF-BP-00308
B2: SAIT-ANG2-AB-m1A10 (antibody, V domains shown)
VH: QVQLQQSGAELMKPGASVKISCKATDYTFSSYWLEWLIQRPGHGLEWIGEILPGSGSTNYNEKFRGKATFTEDTSSNTAYMQLSSLTSEDSAVYYCARGNHNSYYYAMDYWGQGTSVTVSS
VL: DIVLTQSPASLAVSLGQRATISCRASESVDSYGNSFMHWYQQKPGQPPKLLIYRASNLDSGIPARFSGSGSRTDFTLTINPVEADDVATYYCQQSNEDPLTFGAGTKLELK
notes: also called hybridoma KCLRF-BP-00306

Tests used:
[1] = biological target: T1, Ang2 mutant I434 (full-length Ang2); assay: ELISA; antibody coated, FLAG-tagged full-length Ang2 mutant, anti-FLAG-HRP detection
Experimental: A 96-well MaxiSorp™ flat-bottom plate (Nunc) was coated with 50 μl of each anti-Ang2 antibody (400 nM). After that, the plate was washed five times with 0.05% (v/v) Tween-20-containing PBS (PBST) and then blocked with 1% (v/v) BSA-containing PBS at a room temperature for 2 hours. S417, P419, N421, I434, D448, A449, P452, Y460, N467, K468, or F469 residue of Ang2 (SEQ ID NO: 27) was mutated (substituted) with alanine and tagged with FLAG (N-[…]-C; 1012 Da) and then 250 ng of them was each added to each well to the plate, which was allowed to react at a room temperature for 2 hours.
Thereafter, the plate was washed five times with 0.05% (v/v) Tween-20-containing PBS and then, an HRP-conjugated anti-FLAG antibody (SIGMA) diluted in 1% (v/v) BSA-containing PBS at 1:5,000 ratio (v/v) was added in the amount of 50 μl to each well to react at a room temperature for 1 hour, followed by washing five times with 0.1% (v/v) Tween-20-containing PBS.
Finally, 100 μl of TMB substrate (cell signal) was added to each well of the plate to induce color development for 3 minutes and then, the reaction was ceased by the addition of 100 μl of stop solution (Cell signaling) and OD450 values were measured on a plate reader (Molecular Devices). By comparing binding intensity to mutated Ang2 to binding intensity to non-mutated (native) Ang2, each epitope for the Ang2 antibodies was identified.

[2] = biological target: Ang2 RBD mutant A449 (human) (UniProt O15123); assay: ELISA; antibody coated, FLAG-tagged RBD mutant, anti-FLAG-HRP detection
Ang2 RBD mutant S417 = biological target: T2, Ang2 RBD mutant S417; assay: as above
Ang2 RBD mutant K468 = biological target: T3, Ang2 RBD mutant K468; assay: as above
Ang2 RBD mutant Y460 = biological target: T4, Ang2 RBD mutant Y460; assay: as above
Ang2 RBD mutant D448 = biological target: T5, Ang2 RBD mutant D448; assay: as above
Ang2 RBD mutant N467 = biological target: T6, Ang2 RBD mutant N467; assay: as above

Row | Binding (%) (mutant Ang2 / native Ang2) [1] | Binding (%) (mutant Ang2 / native Ang2) [2] | Binding (%) (mutant Ang2 / native Ang2) (Ang2 RBD mutant S417) | Binding (%) (mutant Ang2 / native Ang2) (Ang2 RBD mutant K468) | Binding (%) (mutant Ang2 / native Ang2) (Ang2 RBD mutant Y460) | Binding (%) (mutant Ang2 / native Ang2) (Ang2 RBD mutant D448) | Binding (%) (mutant Ang2 / native Ang2) (Ang2 RBD mutant N467) | Binder
1 | 137 |  |  |  |  |  |  | B1
2 |  | 95.6 | 100 | 27.3 | 8.3 | 95.3 | 79.4 | B2

Reference: patent US20150210761A1 (SAMSUNG ELECTRONICS, published 2015)
